From US11932683B2, “Cellular factors involved in the cytotoxicity of Staphylococcus aureus leukocidins: novel therapeutic targets” (NEW YORK UNIVERSITY, priority 2013, dated 2024) come the findings set out here.

In this series the test system is human PMNs. Briefly: Viability of primary human neutrophils (PMNs) treated with leukotoxins. Type of series: cell-based. To be noted: HlgA or hybrid mixed equimolar with HlgB; CellTiter; n=8 donors.

B1: HlgA^LukE-DR4/HlgB: HlgA with its DR4 domain swapped with LukE DR4, mixed equimolar with HlgB (protein)
chain 1: ENKIEDIGQGAEIIKRTQDITSKRLAITQNIQFDFVKDKKYNKDALVVKMQGFISSRTTYSDLKKYPYIKRMIWPFQYNISLKTKDSNVDLINYLPKNKIDSADVSQKLGYNIGGNFQSAPSIGGSGSFNYSKTISYNQKNYVTEVESQNSKGVKWGVKANSFVTPNGQVSAYDQYLFAQSPNGPTGSAREYFAPDNQLPPLIQSGFNPSFITTLSHERGKGDKSEFEITYGRNMDATYAYVTRHRLAVDRKHDAFKNRNVTVKYEVNWKTHEVKIKSITPK
chain 2: EGKITPVSVKKVDDKVTLYKTTATADSDKFKISQILTFNFIKDKSYDKDTLVLKATGNINSGFVKPNPNDYDFSKLYWGAKYNVSISSQSNDSVNVVDYAPKNQNEEFQVQNTLGYTFGGDISISNGLSGGLNGNTAFSETINYKQESYRTTLSRNTNYKNVGWGVEAHKIMNNGWGPYGRDSFHPTYGNELFLAGRQSSAYAGQNFIAQHQMPLLSRSNFNPEFLSVLSHRQDGAKKSKITVTYQREMDLYQIRWNGFYWAGANYKNFKTRTFKSTYEIDWENHKVKLLDTKETENNK
modifications: left off: small tags and cut ends
On to B1, for which the “cytotoxic activity against hPMNs” value is given as “exhibited potent cytotoxic activity against hPMNs”.
